For assay [1], the target named is T1, ClpXP protease (E. coli ClpX6 with ClpP14) (E. coli, UniProt P0A6H1 1-424; P0A6G7 15-207).
T1 construct: Purified recombinant proteins mixed in the assay; also called SspB-ClpXP (when SspB is added); not shown: N-terminal His6 tag from pET28a; C-terminal His6 tag from pQE70
Description: GFP-tag proteolysis by ClpXP in the presence of SspB.

Assay [2] has as its target T1, ClpXP protease (E. coli ClpX6 with …). Kind of assay: continuous fluorimetric assay of GFP-tag proteolysis by ClpXP, no SspB.
The target is the same in assay [3]. Description: continuous fluorimetric assay of GFP-tag proteolysis by ClpXP, with SspB.
For assay [4] the target is unchanged. Kind of assay: cell-based or functional assay.
The target is the same in assay [5]. Kind of assay: kinetic assays with purified peptides and E. coli proteins (GFP-tag proteolysis by ClpXP with SspB); uncompetitive model.
Assay [6] shares this target. Kind of assay: kinetic assays with purified peptides and E. coli proteins (GFP-tag proteolysis by ClpXP with SspB).
Assay [7] has the same target. Description: GFP-tag proteolysis by ClpXP without SspB against with SspB.

Where no end group is shown, it is not given here.

T1 sequence (P0A6H1 whole entry, chain 1 of 2): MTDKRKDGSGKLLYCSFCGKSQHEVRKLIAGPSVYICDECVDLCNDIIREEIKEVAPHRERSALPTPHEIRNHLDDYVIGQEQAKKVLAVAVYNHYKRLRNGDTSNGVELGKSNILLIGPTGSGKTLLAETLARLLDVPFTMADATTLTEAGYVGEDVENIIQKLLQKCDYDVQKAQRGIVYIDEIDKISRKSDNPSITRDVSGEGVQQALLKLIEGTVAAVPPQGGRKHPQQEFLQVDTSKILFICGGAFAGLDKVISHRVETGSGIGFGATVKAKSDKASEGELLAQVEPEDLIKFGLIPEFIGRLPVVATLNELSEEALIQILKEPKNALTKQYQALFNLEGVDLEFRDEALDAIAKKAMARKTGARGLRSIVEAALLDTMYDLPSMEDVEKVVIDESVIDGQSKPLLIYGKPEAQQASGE
T1 sequence (P0A6G7 15-207, chain 2 of 2): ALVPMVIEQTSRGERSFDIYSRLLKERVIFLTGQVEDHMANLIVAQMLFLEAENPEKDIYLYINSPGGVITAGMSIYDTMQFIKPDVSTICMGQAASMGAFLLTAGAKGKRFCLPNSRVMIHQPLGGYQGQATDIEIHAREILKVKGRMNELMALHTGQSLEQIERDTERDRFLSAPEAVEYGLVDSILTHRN

Broadly, the Ki is the equilibrium dissociation constant of an inhibitor or competing ligand from its target. As to CRGGRPALRVVK (also: cyclized in vitro, ring type not given here) [cycXB, cyclic XB peptide [CRGGRPALRVVK] (Table 4)], the Ki in assay [1] came out at 8.1 µM; in assay [2] it was 6 µM; in assay [3] it was 8 µM. In addition, in assay [1], the “fold lower KI than the linear XB peptide” value is 7 fold.

B1: ICP1, cyclic SGSKGVLPL peptide (peptide)
peptide: SGSKGVLPL
modifications: head-to-tail cyclized (cyclic peptide)
notes: Chemically synthesized linear, circularized and HPLC purified; also called IXP3
As to B1, the Ki in assay [2] turned out to be 28 µM; in assay [3], 25 µM.

As for SGWYGRRH (head-to-tail cyclized (cyclic peptide), also called cyclic IXP1) [IXP1, cyclic SGWYGRRH peptide], in assay [4], the “half-life of λ O with ClpXP and 100 µM IXP1” value came to 1.22 h. In assay [5], this molecule returned a Ki of 136 µM.

B2: linear XB peptide, CRGGRPALRVVK (peptide)
peptide: CRGGRPALRVVK
notes: The text calls XB the 11 C-terminal residues of E. coli SspB; also called linXB
Regarding B2, the Ki in assay [1] was 6.4 µM; in assay [2], more than 1000 µM; in assay [3], 64 µM; in assay [6] it was 56 µM.

In the case of SGWRVQGPL (head-to-tail cyclized (cyclic peptide), also called IXP4) [ICP2, cyclic SGWRVQGPL peptide], the “fold higher KI without SspB” value in assay [7] is not below 10 fold. The Ki in assay [2] is more than 1000 µM; in assay [3], 21 µM.

B3: Con62, cyclic SGWPYKWM peptide (peptide)
peptide: SGWPYKWM
modifications: head-to-tail cyclized (cyclic peptide)
notes: Arbitrary cyclic peptide from the SGWX5 library, negative control; also called arbitrary cyclic peptide
On to B3, for which, in assay [2], the Ki was more than 1000 µM.

B4: cyclic XB, RGGRPALRVVK (Table 6) (peptide)
peptide: RGGRPALRVVK
modifications: also: cyclized, ring type not given here
notes: possibly the same preparation as m6; also called cyclic XB peptide
In the case of B4, the “fold lower KI than the linear XB peptide” value in assay [1] worked out at 7 fold. For the same molecule, in assay [6], the affinity corresponds to a Ki of 8 µM.

(Values after patent US20090143241A1 (PENN STATE RESEARCH FOUNDATION, published 2009).)
